± gives the uncertainty stated by the source.
Test: self-splicing fitness, log relative to wild type (ln ratio); higher = more splicing; Tetrahymena group I intron in knt gene, E. coli kanamycin selection, DiMSum; sequences stand for … in CUCUCU…GGAGGGAAAAGUUAUCAGGCAUGCACCUGGUAGCUAGUCUUUAAACCAAUAGAUUGCAUCGGUUUAAAAGGCAAGACCGUCAAAUUGCGGGAAAGGGGUCAACAGCCGUUCAGUACCAAGUCUCAGGGGAAACUUUGAGAUGGCCUUGCAAAGGGUAUGGUAAUAAGCUGACGGACAUGGUCCUAACCACGCAGCCAAGUCCUAAGUCAACAGAUCUUCUGUUGAUAUGGAUGCAGUUCACAGACUAAAUGUCGGUCGGGGAAGAUGUAUUCUUCUCAUAAGAUAUAGUCGGACCUCUCCUUAAUGGGAGCUAGCGGAUGAAGUGAUGCAACACUGGAGCCGCUGGGAACUAAUUUGUAUGCGAAAGUAUAUUGAUUAGUUUUGGAGUACUCGUGGUCG
In short: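 A randomised library covering all eight P1ex-region intron nucleotides was built with the intron in the knt kanamycin-resistance gene on pET-22b(+) and held in E. coli BL21(DE3). Cells were grown overnight at 37°C or 30°C on LB agar, with or without 25 μg/mL kanamycin, plus 100 μg/mL carbenicillin, 50 μM IPTG and 0.2% rhamnose, and pooled colonies were amplicon-sequenced on an Illumina HiSeq 2500. DiMSum fitness is the error-weighted combination of wild-type-normalised replicate fold changes, kanamycin versus none.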

Sequence	self-splicing fitness (ln) (30 °C)	self-splicing fitness (ln) (37 °C)
UCAUAGCAAUAUUACGUCUG	-1.16 ± 0.081	-0.895 ± 0.1
GUUGAGCAAUAUUACGUCCU	-1.27 ± 0.17	-1.47 ± 0.21
AAUAAGCAAUAUUACGUGAA	-2.46 ± 0.16	-0.674 ± 0.13
AUCAAGCAAUAUUACGAUUG	-4.34 ± 0.3	-3.41 ± 0.3
ACAUAGCAAUAUUACGGCGA	-0.475 ± 0.09	-0.0687 ± 0.1
AAUAAGCAAUAUUACGAACA	-0.812 ± 0.15	-0.462 ± 0.15
AGCAAGCAAUAUUACGACGA	-0.884 ± 0.14	-0.398 ± 0.16
UGAUAGCAAUAUUACGUAUU	-3.26 ± 0.25	-2.34 ± 0.29
AACCAGCAAUAUUACGGCCG	0.0592 ± 0.073	-0.223 ± 0.1
GUCCAGCAAUAUUACGCGAA	-1.21 ± 0.11	0.483 ± 0.11
UGUCAGCAAUAUUACGAAGG	-1.69 ± 0.1	-0.409 ± 0.14
AGACAGCAAUAUUACGAUGC	-3.36 ± 0.23	-2.33 ± 0.19
CCUCAGCAAUAUUACGGCGU	-3.42 ± 0.21	-2.64 ± 0.27
AACAAGCAAUAUUACGGUAG	-3.81 ± 0.2	-2.22 ± 0.13
CAUCAGCAAUAUUACGCGUA	-0.586 ± 0.089	-0.774 ± 0.083
AGGGAGCAAUAUUACGUCGC	-1.42 ± 0.34	–
CCUGAGCAAUAUUACGUUGA	-3.7 ± 0.26	-3.27 ± 0.25
UGCUAGCAAUAUUACGUCGA	-1.18 ± 0.13	-1.14 ± 0.18
UUACAGCAAUAUUACGCCGU	–	-2.05 ± 0.31
CUUAAGCAAUAUUACGAUAU	-3.29 ± 0.2	-1.4 ± 0.17
GAGAAGCAAUAUUACGAUAA	-2.02 ± 0.14	-0.42 ± 0.15
GCCAAGCAAUAUUACGAUGU	-0.536 ± 0.061	0.0237 ± 0.084
UAGUAGCAAUAUUACGUGCC	-2.98 ± 0.25	-2.11 ± 0.27
UUGCAGCAAUAUUACGCGUC	-3.44 ± 0.15	-1.61 ± 0.14
GAACAGCAAUAUUACGAACU	-0.795 ± 0.07	0.239 ± 0.09
CGUCAGCAAUAUUACGGACC	-0.189 ± 0.17	0.292 ± 0.17

Sequence	self-splicing fitness (ln) (30 °C)	self-splicing fitness (ln) (37 °C)
UUGGAGCAAUAUUACGUGCC	-3.24 ± 0.32	-2.74 ± 0.36
CAAGAGCAAUAUUACGGUCU	-2.35 ± 0.16	-1.97 ± 0.22
CCAUAGCAAUAUUACGAAAA	-3.02 ± 0.29	–
UGGCAGCAAUAUUACGCUCU	-2.8 ± 0.2	-1.37 ± 0.16
UCGAAGCAAUAUUACGAGGU	-3.45 ± 0.4	-2.03 ± 0.29
UGACAGCAAUAUUACGUGAU	-3.05 ± 0.11	-0.351 ± 0.084
AAUCAGCAAUAUUACGUGCU	-3.39 ± 0.17	-2.56 ± 0.17
AGAGAGCAAUAUUACGGUGC	-4.34 ± 0.42	-2.07 ± 0.29
GAUUAGCAAUAUUACGCGAA	-3.47 ± 0.29	-1.44 ± 0.21
CAUGAGCAAUAUUACGCCCU	–	-1.18 ± 0.27
CGGAAGCAAUAUUACGAAUU	-3.28 ± 0.36	-2.77 ± 0.44
CAGGAGCAAUAUUACGCAUG	-3.78 ± 0.28	-1.89 ± 0.2
AUUUAGCAAUAUUACGCCCU	0.0873 ± 0.082	0.37 ± 0.11
AGAAAGCAAUAUUACGCCUA	-1.36 ± 0.14	-1.04 ± 0.17
GGGCAGCAAUAUUACGGAUC	-0.301 ± 0.057	0.486 ± 0.076
AUAUAGCAAUAUUACGCAUC	-2.63 ± 0.22	-1.15 ± 0.26
AGGCAGCAAUAUUACGUAGA	-2.33 ± 0.15	-0.171 ± 0.11
GCGCAGCAAUAUUACGUAAA	0.442 ± 0.089	0.263 ± 0.12
UUUAAGCAAUAUUACGCAGA	-1.64 ± 0.16	-1.93 ± 0.14
GGAUAGCAAUAUUACGUCGG	-2.62 ± 0.23	-1.86 ± 0.27
AACCAGCAAUAUUACGUACU	0.015 ± 0.053	0.248 ± 0.066
GCAAAGCAAUAUUACGUAUU	-2.65 ± 0.075	-1.29 ± 0.081
CCUAAGCAAUAUUACGAACG	-1.68 ± 0.13	-0.478 ± 0.14
UCCCAGCAAUAUUACGACCC	-2.89 ± 0.31	-2.44 ± 0.35
UAUAAGCAAUAUUACGGAGU	-3.46 ± 0.32	-1.46 ± 0.2
CGGUAGCAAUAUUACGGCGG	0.494 ± 0.093	0.0118 ± 0.096

Sequence	self-splicing fitness (ln) (30 °C)	self-splicing fitness (ln) (37 °C)
ACCAAGCAAUAUUACGGUAA	-2.9 ± 0.14	-2.02 ± 0.12
UGUCAGCAAUAUUACGCAGA	-2.8 ± 0.25	-2.38 ± 0.5
CAAGAGCAAUAUUACGUUGU	-5.35 ± 0.45	-2.26 ± 0.22
CUGUAGCAAUAUUACGCUAU	–	-0.73 ± 0.29
CCUGAGCAAUAUUACGGAAC	-2.63 ± 0.33	-1.66 ± 0.31
CAACAGCAAUAUUACGUCGC	-2.75 ± 0.17	-2.07 ± 0.18
AAAGAGCAAUAUUACGAAGG	-3.52 ± 0.33	-2.64 ± 0.41
GCGGAGCAAUAUUACGUCCG	-0.898 ± 0.32	-0.455 ± 0.25
AACUAGCAAUAUUACGCAGG	-2.99 ± 0.15	-1.66 ± 0.14
CGCAAGCAAUAUUACGUUCC	-2.95 ± 0.15	-1.06 ± 0.12
AGCGAGCAAUAUUACGACGU	-1.74 ± 0.083	-0.339 ± 0.11
UUAAAGCAAUAUUACGUAGG	-1.29 ± 0.11	0.067 ± 0.13
AUCCAGCAAUAUUACGGACA	-0.527 ± 0.099	-0.096 ± 0.11
CGUCAGCAAUAUUACGAUAU	-2.13 ± 0.13	-0.978 ± 0.13
UGCCAGCAAUAUUACGGGGG	-3.83 ± 0.17	-2.9 ± 0.17
AUUAAGCAAUAUUACGCAGA	-2.88 ± 0.27	-1.36 ± 0.2
UACUAGCAAUAUUACGCAGG	-1.77 ± 0.14	-1.49 ± 0.15
GUAGAGCAAUAUUACGACCG	-1.28 ± 0.2	-1.98 ± 0.46
CGGCAGCAAUAUUACGAAGU	-3.35 ± 0.28	-0.302 ± 0.2
GGUCAGCAAUAUUACGUGUG	-1.39 ± 0.069	-0.514 ± 0.092
UUGUAGCAAUAUUACGACAC	-1.44 ± 0.22	-1.48 ± 0.32
GCAUAGCAAUAUUACGGUCA	-0.966 ± 0.09	-0.953 ± 0.096
UGCUAGCAAUAUUACGGGAA	-1.83 ± 0.15	-0.95 ± 0.16
UAAAAGCAAUAUUACGUCCA	0.0284 ± 0.091	-0.623 ± 0.12
CGGAAGCAAUAUUACGACCC	-0.496 ± 0.27	-0.781 ± 0.33

— the supplement of paper PMC7877785
